Assay results reported in the supplement of paper PMC12042874.
± gives the uncertainty stated by the source.

Assay: amyloid nucleation score (Sup35N fusion, yeast selection) (log enrichment); library NNK2; higher = more nucleation; inactive = no reads after selection
Summary of the method: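 The nucleation score is the DiMSum log enrichment of output over input reads, centred on the mode score of non-aggregating sequences. Only sequences with 100 or more input reads were scored, using Illumina sequencing of input and output plasmid inserts. Psi-negative yeast expressing Sup35N fused to peptides of 20 random codons were induced 24 hours with 100 μM copper sulfate and grown 7 days at 30°C on medium lacking adenine and uracil.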

Substance | amyloid nucleation score
PYQLRVSLTLMLISGSLDIY | 0.47 ± 0.5
QCGMIMRSSLKSGATCFLDS | 0.124 ± 0.61
QCLHSWDWLKSWFVFVGRGE | 3.88 ± 0.066
QCLYWV | inactive
QCMTKKLEISQY | -0.492 ± 1
QDVFCLSGLNSHCK | -1.45 ± 0.78
QENFCEYFFDRSITSWWR | inactive
QFARGPSGSIMEQVLIDGDV | 0.277 ± 0.64
QFASISICYKSSIPNDCNDV | 1.12 ± 0.2
QFNKIDWMHKMFTSSRVNMS | -0.166 ± 0.31
QFSCRCN | 0.011 ± 0.79
QFSLLDHITCQPLPTLFLS | 7.91 ± 0.065
QFSLMRAIFMWASPRSWLLD | inactive
QFWVPTLEAWSWTSAFPYMP | -0.536 ± 1.1
QGYAYMCTGSFFFSLLQVLS | 3.79 ± 0.1
QIDLL | -1.36 ± 1.1
QIYCVSPLSRHWYFARYGVT | 0.78 ± 0.32
QKGHSRLQPWSLSPYVYRPL | 0.556 ± 0.42
QLCAMKMDSRIFCVSCFTML | 7.049 ± 0.056
QLCLLCFLYMC | 3.16 ± 0.16
QLESRRDDHRVHESADGSA | 0.466 ± 0.33
QLFFRYYCEAGDVCIFGHIA | 3.32 ± 0.099

Substance | amyloid nucleation score
QLFMNPDWNKRHYNELYSSG | inactive
QLFVMADNVRESSKTLRTIW | -0.513 ± 0.35
QLGIGFFGRKWDGHL | 2.79 ± 0.16
QLGLLFFGTVLM | 1.87 ± 0.14
QLNFYNQTQCVLGEVTTLN | -0.476 ± 0.36
QLTQYQSKTRTMCRKQERTV | 1.88 ± 0.43
QLYKRSE | 0.256 ± 0.27
QMGCWLGLLVDSLYLSWLVT | -0.2 ± 0.43
QMIFGYQHRAALDIMNGVPD | inactive
QMMLLTV | -0.214 ± 1.1
QMYATSFNIDCVLFLSLFEM | 6.27 ± 0.07
QNESHIH | 6.31 ± 0.079
QNLCDCCKYQICSVLFMGHA | 4.33 ± 0.082
QNNKILFWQ | 0.039 ± 0.31
QRARTRYGLRSLSYSAYIWS | 0.807 ± 0.17
QRFRHRKTQISVFS | -0.876 ± 1.1
QSFFLN | inactive
QSIRFVFLPYELGTYHGDEG | -0.241 ± 0.24
QSPSIRTCTYYGTYRRLKKG | inactive
QSYRVPKLFMNAAE | 0.197 ± 0.57
QTDMII | inactive
QTRTQEFFRSFNKVFTQ | 2.59 ± 0.061

Substance | amyloid nucleation score
QTSYMDYKYRMGFLS | -0.69 ± 0.63
QTYIFFICLVVGMYIVCGKH | -0.17 ± 0.45
QTYMPTFCYITFLECWSDKG | 7.685 ± 0.035
QVAIPHHTRIETASARRVHT | 1.09 ± 0.51
QVGRSSQCEDTVVFIRVRLW | 3.77 ± 0.066
QVYCQAVNYKENRVYFMGVP | 5.2 ± 0.054
QVYLS | -1.17 ± 0.62
QWQGQHLT | -1.4 ± 1
QWSVINRTS | 1.54 ± 0.31
QWVDQVYIAETIVPLSNKVV | -0.398 ± 1
QYGCMEYRHNKCNQREVCRY | 0.281 ± 0.5
QYMLLMMC | 0.671 ± 0.6
QYMYLYIKRMMYSSTKKF | inactive
RAANYCGLKQAWSGFKRCVA | 0.496 ± 0.36
RADSIFDTI | -0.721 ± 0.61
RADTRDSGVVEACKGWSHEE | 0.451 ± 0.34
RAMVPHHNADGCGLLQDTQ | 1.14 ± 0.38
RAMYECF | 0.604 ± 0.41
RARLKTMRPGSCSRARGWCG | 0.883 ± 0.33
RASARLVCTFYVLTERG | 4.17 ± 0.064
RAVEMVYCKLRMSQDGHLRW | 5.482 ± 0.048
RAWCYTGMRGDMESW | -0.447 ± 0.41

Substance | amyloid nucleation score
RCAMRVSARMSRSTGISRLR | 1.64 ± 0.15
RCKAAGCIHLVFFVCRDACC | 0.605 ± 0.66
RCNQLIWTASDNWYYMWTTV | 1.8 ± 0.1
RCNWTSNFFQYMYKNRPNNG | inactive
RCREWYMR | -0.568 ± 0.63
RCSVVNWDNHVMLALDRVGY | inactive
RDAGSGREL | inactive
RDCICSVYPFAVLMGSQPLA | 9.086 ± 0.063
RDCIRAVSCVIENTGPSAYE | 0.049 ± 0.56
RDGYRSGYAESMVGVWFRLK | 0.662 ± 0.81
RDIFILYD | inactive
RDLEPYLHIWSLIVSARV | -0.014 ± 0.65
RDLLIGDDI | -0.983 ± 0.44
RDLSTGSPILEFHRCTRISG | -0.172 ± 0.76
RDSFQCSY | -0.939 ± 0.54
RDWQYRIYVQCNR | 2.17 ± 0.14
REAARRLGEKPNIAVGFDAG | 0.559 ± 0.44
REGPCGELGELPVLKRRGKH | 0.986 ± 0.41
RFDWRFCVVNRPGGKWLVVR | 0.824 ± 0.29
RFFCLWFSWKNLGFNVKRAV | 5.02 ± 0.082
